Reference: the supplement of paper PMC10567573

B1: VDR (parent)
chain: VTLELSQLSMLPHLADLVSYSIQK

Variants of: B1
Assay: protein stability index of a GFP-peptide fusion (GPS, HEK-293T) (PSI 1-6); higher = more stable
Conditions: c terminus: a fixed tail appended
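Also: lentivirally expressed fusions sorted by FACS into six bins by GFP to DsRed ratio, PSI derived from sequencing read proportions per bin multiplied by bin number.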

Protein stability index, by site and new letter:
M10: W 3.71 | H 2.76 | Y 2.33 | G 2.09 | D 1.71 | C 3.52 | A 2.73 | R 3.32 | P 2.64 | E 1.87 | K 1.69 | N 2.14 | T 2.87 | S 1.96 | F 1.99 | Q 2.65
S6: V 3.64 | N 2.58 | E 2.77 | G 3.13 | M 2.06 | F 2.88 | C 2.65 | Y 2.27 | D 2.16 | I 2.48 | L 3.3 | P 2.29 | Q 2.54 | T 1.28 | R 1.52
A15: L 3.63 | I 3.26 | V 3.02 | Q 2.83 | T 2.83 | Y 4.33 | P 2.1 | D 3.12 | W 2.67 | F 2.81 | R 2.64 | E 1.85 | N 2.99 | S 2.73 | G 2.59
K24: R 3.01 | I 4.63 | D 3.06 | P 2.95 | V 5.45 | Y 3.25 | H 5.43 | C 2.39 | M 3.28 | S 2.66 | L 1.86 | G 2.79 | E 3.5 | N 3.71 | A 2.14
V18: T 1.49 | M 2.99 | F 3.13 | A 3.69 | C 4.49 | L 3.33 | H 2.04 | E 1.73 | S 2.94 | D 2.24 | P 1.88 | I 2.79 | Q 2.76 | R 2.57 | G 1.78 | N 1.8 | W 3.29
S9: L 2.79 | P 1.97 | M 3.43 | W 3.43 | D 2.83 | G 3.56 | N 3.47 | Q 2.24 | C 2.37 | E 3.48 | K 3.79 | R 3.06 | H 3.83 | Y 2.63 | I 3.23
L14: A 2.18 | K 2.31 | N 1.61 | D 2.49 | V 3.03 | G 1.71 | T 2.12 | M 3.71 | C 2.09 | E 2.88 | R 1.86 | F 2.69 | H 2.6 | P 1.85
P12: N 2.22 | M 2.51 | W 4.36 | I 3.14 | K 2.72 | Y 3.69 | S 2.38 | C 3.89 | D 3.28 | A 2.4 | F 1.44 | G 2.02 | V 2.61 | T 3.29 | Q 3.63
L3: S 1.5 | E 1.84 | I 2.53 | Q 1.96 | D 2.09 | W 4.09 | F 1.95 | T 1.97 | P 2.49 | K 1.16 | A 2.21 | G 2.67 | N 1.5
V1: L 4.07 | R 3.03 | Y 2.2 | N 1.81 | H 2.44 | T 3 | D 2.29 | G 2.5 | W 2.08 | K 1.86 | Q 2.66 | A 1.63 | M 2.18 | E 1.9
H13: G 2.52 | I 3.46 | Y 2.58 | M 4.11 | P 2.69 | W 1.99 | R 2.16 | N 2.13 | D 2.87 | A 2.64 | E 3.51
L5: G 2.07 | N 1.93 | W 2.81 | I 3.82 | K 1.85 | C 2.54 | A 2.12
